In the DeepSol protein solubility set:

Test: soluble on expression in E. coli; label from the status in PepcDB or PDB records

Soluble on expression in E. coli, soluble:
PRLTRRLTGFLPQEIKSIDTMIPLLSRALWNKHQVKKFNKAEDFQDRFIDHVETTLARSLYNCDDMVAYEAASMSIRDNLVIDWNKTQQKFTTRDPKRVYYLSLEFLMGRALDNALINMKIEDPEDPAASKGKPREMIKGALDELGFKLEDVLDQEPDAGLGNGGLGRLAACFVDSMATEGIPAWGYGLRYEYGIFAQKIIDGYQVETPDYWLNSGNPWEIERNEVQIPVTFYGYVDRPEGGKTTLSASQWIGGERVLAVAYDFPVPGFKTSNVNNLRLWQARPTTEFDLNKFNNGDYKNSVAQQQRAESITAVLYPNDNFAQGKELRLKQQYFWCAASLHDILRRFKKSKRPWTEFPDQVAIQLNDTHPTLAIVELQRVLVDLEKLDWHEAWDIVTKTFAYTNHTVMQEALEKWPRRLFGHLLPRHLEIIYDINWFFLEDVAKKFPKDVDLLSRISIIEENSPERQIRMAFLAIVGSHKVNGVVELHSELIKTTIFKDFIKFYGPSKFVNVTNGITPRRWLKQANPSLAKLISETLNDPTEEYLLDMAKLTQLEKYVEDKEFLKKWNQVKLNNKIRLVDLIKKENDGVDIINREYLDDTLFDMQVKRIHEYKRQQLNVFGIIYRYLAMKNMLKNGASIEEVARKYPRKVSIFGGKSAPGYYMAKLIIKLINCVADIVNNDESIEHLLKVVFVADYNVSKAEIIIPASDLSEHISTAGTEASGTSNMKFVMNGGLIIGTVDGANVEITREIGEDNVFLFGNLSENVEELRYNHQYHPQDLPSSLDSVLSYIESGQFSPENPNEFKPLVDSIKYHGDYYLVSDDFESYLATHELVDQEFHNQRSEWLKKSVLSLANVGFFSSDRCIEEYSDTIWNVEPVT
MHVFDNNGIELKAECSIGEEDGVYGLILESWGPGDRNKDYNIALDYIIERLVDSGVSQVVVYLASSSVRKHMHSLDERKIHPGEYFTLIGNSPRDIRLKMCGYQAYFSRTGRKEIPSGNRTKRILINVPGIYSDSFWASIIRGELSELSQPTDDESLLNMRVSKLIKKTLSQPEGSRKPVEVERLQKVYVRDPMVKAWILQQSKGICENCGKNAPFYLNDGNPYLEVHHVIPLSSGGADTTDNCVALCPNCHRELHYSKNAKELIEMLYVNINRLQKLEHHHHHH
MLVRRLFQPSTLHWAWRTTALNHPLGRHQGGLRWTHSGGRSYRAVIFDTGGVLVPSPGTVAVGWEVQNHVPSGTIVKAFIRGGDSGPWIRFIKGEITTEHFLEEFGRLCSEIAKTSVPVSSYFSLLTSEQVTKQFPVMTQAISQIRAKGLQTAVLTNNFHLSSGESFLPLDRKQFDVVVESCLEGICKPDPRIFQLCLQRLSLQPSEAIFLDDLGSNLKVAASLGIHTIKVDRPETAVKELEALLGFPLHLGVPNTRPVRKTMAIPQDALEKYLKGLLGTHSTGPMELLQFDHGQSNPTYYIRLADRQLVLRKKPSGTLLPSAHAIEREFRIMKALANAGVPVPTVLDLCEDSSIIGTPFYLMEYCPGIIYKDPSLPGLEPSRREAIYTAMNQVLCRIHSVDLQATSLDSFGKQGDYIPRQVQTWTKQYRAAETSSIPAMERLIQWLPLHLPRQQRTTLVHGDFRLDNLIFHPEKAEVLAVLDWELSTLGDPFADVAYSCLAYYLPSSFPILRGFRDQDVTKLGIPTVEEYFRMYCLNMGIPPIDNWNFYMAFSFFRVAAILQGVYKRSLTGQASSATAQQSGKLTESMAELAWDFATKEGFRVFKEMPATKTLSRSYHAWAGPRSPRTPKGVRGHSTVAAASPSHEAKGGLVISPEGLSPAVRKLYEQLVQFIEQKVYPLEPELQRHQASADRWSPSPLIEDLKEKAKAEGLWNLFLPLETDPEKKYGAGLTNVEYAHLCEVMGMSLYASEIFNCSAPDTGNMEILVRYGTEEQKARWLVPLLEGRIRSCFAMTEPQVASSDASNIEASIKEEDGCYVINGHKWWTSGILDPRCKLCVFMGKTDPQAPRHQQQSMLLVPMDSPGITVIRPLSVFGLEDPPGGHGEVRFKDVRVPKENILLGPGRGFEIAQGRLGPGRIHHCMRLIGYSERALALMKTRVMSRTAFGKPLVEQGTILADIARSRVEIEQARLLVLKAAHLMDVAGNKTAALDIAMIKMVVPSMAYHVIDRAIQAFGAAGLSSDYPLAQFFGWARALRFADGPDEVHQLTVAKMELKNQSRMQEPAVPRV
ASSSYYEQYHSLNEIYSWIEVMTERYPDMVEKIHIGSSYEKYPLYVLKVSKKEQRAKNAMWIDCGIHAREWISPAFCLWFVGSVTYYYGKEKMHTNLLKHMDFYIMPVVNVDGYDYTWKKDRMWRKNRSLHEKNACVGTDLNRNFASKHWCGEGASSSSCSEIYCGTYPESEPEVKAVADFLRRNIKHIKAYISMHSYSQKIVFPYSYSRSRSKDHEELSLVAREAVFAMENIHRNIRYTHGSGSESLYLAPGGSDDWIYDLGIKYSFTFELRDKGKYGFLLPESYIRPTCSEALVAVAKIASHVVKNV

Soluble on expression in E. coli, not soluble:
MGSDKIHHHHHHMMFLFINISLAQTADTAVKSDELQTTTTSVDEVGVAPADPTPTLSKKELRRQRVAKRNLHYNILGGPSYTPDFGLLIGGSALMTFRMNPSDTTQQRSVVPMAIALMFEGGLNLFTKPQLFFKGDRFRIFGVFAYKNTLENFYGIGYSTNKDYPRGEDTSEYRYSGVQVNPWFLFRLGKSNFFAGPQIDFNYDKITKPAAGMIEQPSYIAAGGTDHGYSNLSSGLGFLLTYDTRDVPANAYRGTYLDFRGMMYNKAFGSDNNFYRLEIDYRQYKTLGKRKVLAWTVQTKNVFGNVPLTKYALSGTPFDLRGYYMGQFRDKSSHVMMAEYRQMINTDKSNWVKKMLNHVGYVAWGGCGFMGPTPGKIEGVLPNLGLGLRIEVQPRMNVRLDFGRDMVNKQNLFYFNMTEAF
MGSDKIHHHHHHMNEIFVFHGQEVRTVTINNEPWFVGKDVADILGYSKSRNAIALHVDEDDALKQGITDNLGRMQETIIINESGLYSLILSSKLPQVKEFKRWVTSEVLPQIRQQGAYVPENLSDEAFIALFTGQKKLKEHQLALAQDVDYLKNEQPIHPSFAQALLKKRKARVVSCLGGMDSPAYADKVFAQSVFRQAEVDFKDHFNINRYDMLPKKFAEAALSYWMTWEPSTNTKMKILEMNAYEL
MGQTTEAQSLKYGEREIENGELITFPNPRPGRRYTINITLPEYTCKCPFSGYPDFATIYITYVPDQKVVELKAIKLYINSYRDRYISHEEAVNQILDDLVAACDPLEMTIKGDYQPRGNVHTVIEVTHTKEQA
MAGTRDYDHLFKLLIIGDSGVGKSSLLLRFADNTFSENYITTIGVDFKIRTMDINGQRVKLQIWDTAGQERFRTITSTYYRGTHGVVVVYDVTNGESFGNVKRWLQEIENNCDSVQKVLVGNKCEENERRVVLESDARNYAQSMNISFFETSAKEDKNVEPMFTCITSLVLTAKLANPQSASKDQSRTGGVSLKDNSGSTNQKKKCKCG
MRGGPVNSHDVTDEQWEGLAQVVPLRGRDAWPSAVGHRSIPEAQTEARRRFVVLRVNIFADARDVAETLMRGIPVLLDLTSAETEVAKRVLDFSTGVVFGLASGMHRVDRNVFLLTPPGTEVQGLMEGVGVPGILEHHHHHH
MGSDKIHHHHHHMHDVLAKGILSSNNGMNIYRGCTHGCIYCDARSLCYGMDHIFEDIEVKTNVVELLEDTLKRKRKKCMIGTGAMSDPYIHLEEKLQNTRRCLEIIDKYGFGLSILTKSNRILRDLDLLKSINNKAKCVVEMTLTTYDEELCKIIEPNVSTTKERFEVLKIMRDNKIPTVVWLSPILPYINDTEENIRGILDYCIEAEVKGIIVFGIGVTLRNGNREYYYKNLDKQFKGLKEKYIRQYGNSYEVVSKNHEKLMKIIKETCNKNNIICDIREVFNYMRTFEEKNNEVQIGFDI
MGSDKIHHHHHHAPKKKEEPSPEASSSKRPFRVCLNVSTIAGYKLPVQKQIDLCAEAGFEGIELWTRDVDAFVKQGGTYETLRRQLEGSGLLLENMIGFASWFADDLSKRKEGLNQMRHDMEMVAGLGGKFIAAPAQGVTQLDRTRLPEYSERYRAILDLGDEMGVTPILELWGAGILNQLSDTMAIAIASGHSRASVLLDFYHLYRGGNSFDSLRLINGKILPVFHINDYPELPPRTELRDSDRVFPGDGICPFNKVLPLLYDSGFRGGLSVELFNKGYWETMDVKEVLKKSFEKTTQVINSSMG
